Legend:
[1] = target: CD32b(Y163) (UniProt P31994); experiment: SPR
[2] = target: FcRn (human) (UniProt P55899); experiment: SPR; pH 6.0
FcRn (human), sequence (P55899 24-297): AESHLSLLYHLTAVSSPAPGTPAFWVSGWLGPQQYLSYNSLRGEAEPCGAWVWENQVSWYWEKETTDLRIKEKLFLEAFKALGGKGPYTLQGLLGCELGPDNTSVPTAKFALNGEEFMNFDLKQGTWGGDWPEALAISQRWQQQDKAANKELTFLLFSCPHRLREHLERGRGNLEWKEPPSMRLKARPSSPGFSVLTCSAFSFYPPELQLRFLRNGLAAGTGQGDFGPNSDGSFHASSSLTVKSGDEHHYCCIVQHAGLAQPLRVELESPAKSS

CD32b(Y163), sequence (P31994 43-217): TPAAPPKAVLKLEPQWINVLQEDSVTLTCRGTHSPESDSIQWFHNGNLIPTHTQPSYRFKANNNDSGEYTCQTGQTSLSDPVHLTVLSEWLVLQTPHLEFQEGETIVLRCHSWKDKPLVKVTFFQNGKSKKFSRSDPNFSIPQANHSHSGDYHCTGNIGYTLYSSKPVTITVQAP

Work on Herceptin WT yielded a Kd [1] of 1.7 µM and a Kd [2] of 3.7 µM.
